Reference: patent publication US8642284
Where a chain is given by its changes, count along the chain named. Names may count otherwise.

B1: recombinant 6xHis-tagged full-length mSir2α (protein)
chain: MADEVALALQAAGSPSAAAAMEAASQPADEPLRKRPRRDGPGLGRSPGEPSAAVAPAAAGCEAASAAAPAALWREAAGAAASAEREAPATAVAGDGDNGSGLRREPRAADDFDDDEGEEEDEAAAAAAAAAIGYRDNLLLTDGLLTNGFHSCESDDDDRTSHASSSDWTPRPRIGPYTFVQQHLMIGTDPRTILKDLLPETIPPPELDDMTLWQIVINILSEPPKRKKRKDINTIEDAVKLLQECKKIIVLTGAGVSVSCGIPDFRSRDGIYARLAVDFPDLPDPQAMFDIEYFRKDPRPFFKFAKEIYPGQFQPSLCHKFIALSDKEGKLLRNYTQNIDTLEQVAGIQRILQCHGSFATASCLICKYKVDCEAVRGDIFNQVVPRCPRCPADEPLAIMKPEIVFFGENLPEQFHRAMKYDKDEVDLLIVIGSSLKVRPVALIPSSIPHEVPQILINREPLPHLHFDVELLGDCDVIINELCHRLGGEYAKLCCNPVKLSEITEKPPRPQKELVHLSELPPTPLHISEDSSSPERTVPQDSSVIATLVDQATNNNVNDLEVSESSCVEEKPQEVQTSRNVENINVENPDFKAVGSSTADKNERTSVAETVRKCWPNRLAKEQISKRLEGNQYLFVPPNRYIFHGAEVYSDSEDDVLSSSSCGSNSDSGTCQSPSLEEPLEDESEIEEFYNGLEDDTERPECAGGSGFGADGGDQEVVNEAIATRQELTDVNYPSDKS
B2: endogenous mSir2α protein of mouse NIH3T3 cells (protein)
chain: ADEVALALQAAGSPSAAAAMEAASQPADEPLRKRPRRDGPGLGRSPGEPSAAVAPAAAGCEAASAAAPAALWREAAGAAASAEREAPATAVAGDGDNGSGLRREPRAADDFDDDEGEEEDEAAAAAAAAAIGYRDNLLLTDGLLTNGFHSCESDDDDRTSHASSSDWTPRPRIGPYTFVQQHLMIGTDPRTILKDLLPETIPPPELDDMTLWQIVINILSEPPKRKKRKDINTIEDAVKLLQECKKIIVLTGAGVSVSCGIPDFRSRDGIYARLAVDFPDLPDPQAMFDIEYFRKDPRPFFKFAKEIYPGQFQPSLCHKFIALSDKEGKLLRNYTQNIDTLEQVAGIQRILQCHGSFATASCLICKYKVDCEAVRGDIFNQVVPRCPRCPADEPLAIMKPEIVFFGENLPEQFHRAMKYDKDEVDLLIVIGSSLKVRPVALIPSSIPHEVPQILINREPLPHLHFDVELLGDCDVIINELCHRLGGEYAKLCCNPVKLSEITEKPPRPQKELVHLSELPPTPLHISEDSSSPERTVPQDSSVIATLVDQATNNNVNDLEVSESSCVEEKPQEVQTSRNVENINVENPDFKAVGSSTADKNERTSVAETVRKCWPNRLAKEQISKRLEGNQYLFVPPNRYIFHGAEVYSDSEDDVLSSSSCGSNSDSGTCQSPSLEEPLEDESEIEEFYNGLEDDTERPECAGGSGFGADGGDQEVVNEAIATRQELTDVNYPSDKS
B3: recombinant mSir2α mutant G253A (protein)
chain: B1 chain with G253A
B4: recombinant mSir2α mutant G255A (protein)
chain: B1 chain with G255A
B5: recombinant mSir2α mutant S257A (protein)
chain: B1 chain with S257A
B6: recombinant mSir2α mutant I262A (protein)
chain: B1 chain with I262A
B7: recombinant mSir2α mutant F265A (protein)
chain: B1 chain with F265A
B8: recombinant mSir2α mutant G270A (protein)
chain: B1 chain with G270A
B9: recombinant mSir2α mutant T336A (protein)
chain: B1 chain with T336A
B10: recombinant mSir2α mutant H355A (protein)
chain: B1 chain with H355A
B11: recombinant mSir2α mutant R266A (protein)
chain: B1 chain with R266A
B12: recombinant mSir2α mutant P285A (protein)
chain: B1 chain with P285A

Key:
[1] = molecular target: histone H2A (calf thymus), P0C0S9
[2] = molecular target: histone H2B (calf thymus), P62808
[3] = molecular target: histone H3 (calf thymus), intact protein, P68432
[4] = molecular target: histone H3 N-terminal tail peptide (residues 1-20) di-acetylated at lysines 9 and 14
[5] = molecular target: histone H4 (calf thymus), P62803
[6] = molecular target: histone H4 N-terminal tail peptide (residues 1-20) acetylated at Lys16
[7] = molecular target: unacetylated histone H3 N-terminal tail peptide (residues 1-20)

| Protein | mono-ADP-ribosylation activity relative to wild type (Phosphorimaging) [2] | further results |
| --- | --- | --- |
| B1 | – | ADP-ribosylation (transfer of 32P from NAD, SDS-PAGE) (histone H1 (calf thymus)): but not to H1, H2A and H4; ADP-ribosylation (transfer of 32P from NAD, SDS-PAGE) [1]: but not to H1, H2A and H4; ADP-ribosylation (transfer of 32P from NAD, SDS-PAGE) [2]: transferred radioactive ADP-ribose to H2B and H3; ADP-ribosylation (transfer of 32P from NAD, SDS-PAGE) [3]: transferred radioactive ADP-ribose to H2B and H3; ADP-ribosylation of peptide (32P-NAD, thin layer chromatography) [4]: Both the yeast and mouse Sir2 modified only the diacetylated H3 tail peptide; NAD-dependent deacetylation (HPLC) [4]: gave rise to the same array of products with a similar yield as the yeast enzyme; ADP-ribosylation (transfer of 32P from NAD, SDS-PAGE) [5]: but not to H1, H2A and H4; ADP-ribosyltransferase and NAD hydrolase activities (thin layer chromatography) [6]: Both ADP-ribosylation and NAD hydrolysis were stimulated by the Lys16Ac peptide; ADP-ribosylation of peptide (32P-NAD, thin layer chromatography) [7]: modified only the diacetylated H3 tail peptide (unacetylated peptide not modified) |
| B2 | – | ADP-ribosyl-transferase activity of the immune complex on Protein A-Sepharose beads [2]: ADP-ribosyl-transferase activity could be detected for the endogenous mSir2α immunoprecipitated from NIH3T3 whole cell extracts |
| B3 | completely abolished the activity | – |
| B4 | completely abolished the activity | – |
| B5 | completely abolished the activity | – |
| B6 | completely abolished the activity | – |
| B7 | completely abolished the activity | – |
| B8 | completely abolished the activity | – |
| B9 | completely abolished the activity | – |
| B10 | completely abolished the activity | – |
| B11 | 18% for R266A | – |
| B12 | 5% for P285A | – |
